From patent US20120135923A1, “Use of Melanocortins to Treat Dyslipidemia” (IPSEN PHARMA, S.A.S., priority 2009, published 2012) come the findings set out here.

Bridge positions count the residues as written; N and C are the ends. Square brackets hold non-standard residues; d marks the D form. d2Nal = N[C@H](Cc1ccc2ccccc2c1)C(=O)O; Bta = N[C@@H](Cc1csc2ccccc12)C(=O)O; Pen = CC(C)(S)[C@H](N)C(=O)O; Aib = CC(C)(N)C(=O)O; GABA = NCCCC(=O)O; βAla = NCCC(=O)O

Common to all, as to experiment: cell-based or functional assay
Assay [1] addresses hMC1-R (human) (UniProt Q01726).
In assay [2] the target is hMC3-R (human) (UniProt P41968).
Assay [3] has as its target hMC4-R (human) (UniProt P32245).
For assay [4], the target named is hMC5-R (human) (UniProt P33032).
hMC5-R (human), sequence (P33032 whole entry): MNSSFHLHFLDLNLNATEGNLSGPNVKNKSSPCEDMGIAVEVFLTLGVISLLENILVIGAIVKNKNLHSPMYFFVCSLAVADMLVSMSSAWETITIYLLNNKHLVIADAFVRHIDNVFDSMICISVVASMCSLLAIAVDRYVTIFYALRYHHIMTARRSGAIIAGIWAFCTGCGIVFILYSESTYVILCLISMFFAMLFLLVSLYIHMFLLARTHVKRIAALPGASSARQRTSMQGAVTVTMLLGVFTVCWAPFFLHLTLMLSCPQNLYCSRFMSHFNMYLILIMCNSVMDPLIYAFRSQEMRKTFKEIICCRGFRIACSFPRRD

hMC1-R (human), sequence (Q01726 whole entry): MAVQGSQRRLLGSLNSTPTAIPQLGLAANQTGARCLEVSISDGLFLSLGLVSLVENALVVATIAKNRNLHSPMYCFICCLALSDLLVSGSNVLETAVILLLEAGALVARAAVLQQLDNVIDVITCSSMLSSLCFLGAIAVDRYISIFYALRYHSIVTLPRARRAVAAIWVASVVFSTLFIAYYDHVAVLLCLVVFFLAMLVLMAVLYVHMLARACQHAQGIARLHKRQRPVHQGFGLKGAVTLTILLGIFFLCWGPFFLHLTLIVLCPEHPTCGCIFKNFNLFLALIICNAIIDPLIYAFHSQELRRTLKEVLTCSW
hMC4-R (human), sequence (P32245 whole entry): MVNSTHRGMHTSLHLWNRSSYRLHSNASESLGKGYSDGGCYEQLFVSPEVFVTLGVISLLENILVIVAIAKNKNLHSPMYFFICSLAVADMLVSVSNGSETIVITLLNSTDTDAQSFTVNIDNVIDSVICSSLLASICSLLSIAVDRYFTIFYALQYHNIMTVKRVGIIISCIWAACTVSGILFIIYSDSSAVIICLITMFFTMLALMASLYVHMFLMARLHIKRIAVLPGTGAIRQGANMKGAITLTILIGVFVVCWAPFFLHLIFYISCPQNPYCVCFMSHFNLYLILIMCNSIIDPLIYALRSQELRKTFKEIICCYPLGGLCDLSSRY
hMC3-R (human), sequence (P41968 whole entry): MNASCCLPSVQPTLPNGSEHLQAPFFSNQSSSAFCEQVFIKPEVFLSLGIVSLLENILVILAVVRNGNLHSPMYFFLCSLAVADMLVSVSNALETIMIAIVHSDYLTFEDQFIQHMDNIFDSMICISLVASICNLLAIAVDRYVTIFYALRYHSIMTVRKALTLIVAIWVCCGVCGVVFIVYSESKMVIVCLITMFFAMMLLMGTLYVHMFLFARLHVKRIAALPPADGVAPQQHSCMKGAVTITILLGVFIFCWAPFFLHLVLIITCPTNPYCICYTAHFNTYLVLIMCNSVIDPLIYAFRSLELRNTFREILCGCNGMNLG

B1: Ac-c(Cys-Glu-His-D-2-Nal-Arg-Bal-Ala-Cys)-Pro-Pro-Lys-Asp-β-Ala-Tyr-Aib-Arg-Lys-Lys-Arg-Arg-Gln-Arg-Arg-Arg-NH2 (peptide)
peptide: Ac-CEH[d2Nal]R[Bta]ACPPKD[βAla]Y[Aib]RKKRRQRRR-NH2
modifications: disulfide 1-8
SMILES: CC(=O)N[C@H]1CSSC[C@@H](C(=O)N2CCC[C@H]2C(=O)N2CCC[C@H]2C(=O)N[C@@H](CCCCN)C(=O)N[C@@H](CC(=O)O)C(=O)NCCC(=O)N[C@@H](Cc2ccc(O)cc2)C(=O)NC(C)(C)C(=O)N[C@@H](CCCNC(=N)N)C(=O)N[C@@H](CCCCN)C(=O)N[C@@H](CCCCN)C(=O)N[C@@H](CCCNC(=N)N)C(=O)N[C@@H](CCCNC(=N)N)C(=O)N[C@@H](CCC(N)=O)C(=O)N[C@@H](CCCNC(=N)N)C(=O)N[C@@H](CCCNC(=N)N)C(=O)N[C@@H](CCCNC(=N)N)C(N)=O)NC(=O)[C@H](C)NC(=O)[C@H](Cc2csc3ccccc23)NC(=O)[C@H](CCCNC(=N)N)NC(=O)[C@@H](Cc2ccc3ccccc3c2)NC(=O)[C@H](Cc2c[nH]cn2)NC(=O)[C@H](CCC(=O)O)NC1=O
B1: the cAMP EC50 in assay [1] was determined as 67.1; in assay [4] it was 582 nM. Moreover, the cAMP Kb came out at 439 in assay [2] and 46.5 in assay [3].

B2: Ac-Nle-c(Cys-D-Ala-His-D-Phe-Arg-Trp-Cys)-(Doc)2-Tyr-Gly-Arg-Lys-Lys-Arg-Arg-Gln-Arg-Arg-Arg-NH2 (peptide)
peptide: XCAHFRWCXXYGRKKRRQRRR
modifications: N-terminal acetyl; X1=Nle; D-Ala3; D-Phe5; X9=Doc; X10=Doc; Cys2-Cys8 disulfide; C-terminal amide
Take B2: the figures for the cAMP EC50 in assay [1] and in assay [4] were 4.7 and 147 nM, respectively.

B3: Ac-c(Cys-Glu-His-D-2-Nal-Arg-1-Nal-Ala-Cys)-Pro-Pro-Lys-Asp-β-Ala-Tyr-Gly-Arg-Lys-Lys-Arg-Arg-Gln-Arg-Arg-Arg-NH2 (peptide)
peptide: CEHXRXACPPKDXYGRKKRRQRRR
modifications: N-terminal acetyl; X4=D-2-Nal; X6=1-Nal; X13=β-Ala; Cys1-Cys8 disulfide; C-terminal amide
Turning to B3, the cAMP EC50 in assay [1] was determined as 43.3; in assay [4], 1290 nM. The cAMP Kb in assay [2] was 215; in assay [3], 5.87.

B4: Ac-D-Arg-c(Cys-His-D-Phe-Arg-Trp-Gaba-Pen)-NH2 (peptide)
peptide: Ac-[dR]CH[dF]RW[GABA][Pen]-NH2
modifications: disulfide 2-8
SMILES: CC(=O)N[C@H](CCCNC(=N)N)C(=O)N[C@H]1CSSC(C)(C)[C@@H](C(N)=O)NC(=O)CCCNC(=O)[C@H](Cc2c[nH]c3ccccc23)NC(=O)[C@H](CCCNC(=N)N)NC(=O)[C@@H](Cc2ccccc2)NC(=O)[C@H](Cc2c[nH]cn2)NC1=O
Take B4: the cAMP EC50 was determined as 8.43 nM in assay [1], 32.4 nM in assay [2], 0.959 nM in assay [3] and 2140 nM in assay [4].

B5: Ac-c(Cys-Glu-His-D-2-Nal-Arg-Trp-Ala-Cys)-Pro-Pro-Lys-Asp-NH2 (peptide)
peptide: Ac-CEH[d2Nal]RWACPPKD-NH2
modifications: disulfide 1-8
SMILES: CC(=O)N[C@H]1CSSC[C@@H](C(=O)N2CCC[C@H]2C(=O)N2CCC[C@H]2C(=O)N[C@@H](CCCCN)C(=O)N[C@@H](CC(=O)O)C(N)=O)NC(=O)[C@H](C)NC(=O)[C@H](Cc2c[nH]c3ccccc23)NC(=O)[C@H](CCCNC(=N)N)NC(=O)[C@@H](Cc2ccc3ccccc3c2)NC(=O)[C@H](Cc2c[nH]cn2)NC(=O)[C@H](CCC(=O)O)NC1=O
For the molecule B5, the cAMP EC50 stood at 66.1 in assay [1] and 6.84 nM in assay [4]. Moreover, the cAMP Kb came to 33.4 in assay [2] and 0.687 in assay [3].

B6: Ac-c(Cys-Glu-His-D-2-Nal-Arg-2-Nal-Ala-Cys)-Pro-Pro-Lys-Asp-β-Ala-Tyr-Gly-Arg-Lys-Lys-Arg-Arg-Gln-Arg-Arg-Arg-NH2 (peptide)
peptide: CEHXRXACPPKDXYGRKKRRQRRR
modifications: N-terminal acetyl; X4=D-2-Nal; X6=2-Nal; X13=β-Ala; Cys1-Cys8 disulfide; C-terminal amide
With B6, the cAMP EC50 in assay [1] amounted to 29.7; in assay [4] it was 82.9 nM. Further, the cAMP Kb stood at 25.6 in assay [2] and 7.37 in assay [3].

B7: Ac-c(Cys-Glu-His-D-2-Nal-Arg-Bal-Ala-Cys)-Pro-Pro-Lys-Asp-β-Ala-Tyr-Gly-Arg-Lys-Lys-Arg-Arg-Gln-Arg-Arg-Arg-NH2 (peptide)
peptide: CEHXRXACPPKDXYGRKKRRQRRR
modifications: N-terminal acetyl; X4=D-2-Nal; X6=Bal; X13=β-Ala; Cys1-Cys8 disulfide; C-terminal amide
On to B7, for which the cAMP EC50 in assay [1] came out at 37.9; in assay [4], 1800 nM. In addition, the cAMP Kb is 112 in assay [2] and 41.1 in assay [3].

B8: Ac-Arg-c(Cys-His-D-Phe-Arg-Trp-Gaba-Pen)-NH2 (peptide)
peptide: Ac-RCH[dF]RW[GABA][Pen]-NH2
modifications: disulfide 2-8
SMILES: CC(=O)N[C@@H](CCCNC(=N)N)C(=O)N[C@H]1CSSC(C)(C)[C@@H](C(N)=O)NC(=O)CCCNC(=O)[C@H](Cc2c[nH]c3ccccc23)NC(=O)[C@H](CCCNC(=N)N)NC(=O)[C@@H](Cc2ccccc2)NC(=O)[C@H](Cc2c[nH]cn2)NC1=O
Consider B8, for which the cAMP EC50 is 4.23 nM in assay [1], 8.09 nM in assay [2], 0.719 nM in assay [3] and 23.2 nM in assay [4].
